Experiment [1] addresses T1, cynomolgus CSF1R expressed on 293F cells (cynomolgus monkey, UniProt P07333 20-972 (human entry)).
T1 construct: also called cynoCSF1R
T1 chain: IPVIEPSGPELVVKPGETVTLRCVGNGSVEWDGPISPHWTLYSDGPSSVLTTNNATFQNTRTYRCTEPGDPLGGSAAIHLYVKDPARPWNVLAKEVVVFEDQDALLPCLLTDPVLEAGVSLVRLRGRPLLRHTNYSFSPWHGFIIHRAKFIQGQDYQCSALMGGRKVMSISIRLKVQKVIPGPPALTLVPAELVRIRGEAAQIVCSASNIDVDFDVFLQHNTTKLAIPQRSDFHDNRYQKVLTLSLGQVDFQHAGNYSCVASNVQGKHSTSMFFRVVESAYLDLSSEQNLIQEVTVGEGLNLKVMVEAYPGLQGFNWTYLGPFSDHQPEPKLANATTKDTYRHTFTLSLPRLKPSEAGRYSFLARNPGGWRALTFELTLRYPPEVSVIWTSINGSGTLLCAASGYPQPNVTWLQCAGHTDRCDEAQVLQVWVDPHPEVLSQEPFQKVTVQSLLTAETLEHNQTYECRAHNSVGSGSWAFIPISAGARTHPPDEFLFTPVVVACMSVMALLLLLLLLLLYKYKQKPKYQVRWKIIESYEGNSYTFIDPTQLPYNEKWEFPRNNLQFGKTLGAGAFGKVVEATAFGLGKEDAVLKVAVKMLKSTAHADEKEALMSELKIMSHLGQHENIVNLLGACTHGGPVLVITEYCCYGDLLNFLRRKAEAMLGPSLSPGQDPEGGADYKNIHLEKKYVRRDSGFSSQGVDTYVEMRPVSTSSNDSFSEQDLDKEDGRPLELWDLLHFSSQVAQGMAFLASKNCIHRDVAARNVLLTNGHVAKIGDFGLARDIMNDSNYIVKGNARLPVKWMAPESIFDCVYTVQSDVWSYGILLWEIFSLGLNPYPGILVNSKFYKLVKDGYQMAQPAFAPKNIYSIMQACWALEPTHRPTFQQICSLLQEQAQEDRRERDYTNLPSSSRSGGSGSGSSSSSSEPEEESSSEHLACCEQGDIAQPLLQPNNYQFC
In words: flow cytometry titration on 293F cells overexpressing cynomolgus CSF1R, anti-human IgG-Alexa Fluor 647. From the text: Materials and methods: The gene segments encoding full-length human CSF1R or cynomolgus CSF1R were obtained using Thermo gene synthesis service and cloned in a mammalian expression vector pCDNA3.4. […] After washing with FACS buffer (2%FBS in PBS), the cells were stained with anti-human IgG-Alexa Fluor 647 and analyzed by Attune N×T Flow Cytometer (Thermo Scientific).
(In general: A flow cytometer gives signals particle by particle.)

Experiment [2] has as its target T2, recombinant human CSF1R-Fc fusion protein (human, UniProt P07333 20-512).
T2 construct: probably the same protein; also called CSF1R-Fc (dimer); not shown: Fc part
In words: competition ELISA, coated human CSF1R-Fc, competitor biotinylated human CSF1-His 2.5 ug/mL. The method, then:
Materials and methods: Recombinant human CSF1R-Fc or mouse CSF1R-Fc (Sino Biological) fusion protein was immobilized on 96 well microtiter plate at a concentration of 1 μg/mL in Coating Solution (SeraCare) overnight at 4° C. The wells were washed with wash solution and blocked with 1% BSA at RT. Serial dilutions of Ab/IL-10 fusion proteins were added to wells. Then 2.5 ug/mL biotinylated human CSF1-His (Biolegend) or mouse CSF1-His (Sino Biological) was added and incubated for 1 h at 37° C. After washing, Streptavidin-HRP (Jackson ImmunoResearch) was applied to wells at RT for 1 h incubation. After washing, the wells were developed with TMB substrate for 5-10 min at RT and the stopped with 1 N HCl. Thereafter absorbance was measured at 450 nm and 650 nm. The IC₅₀ values were calculated through GraphPad Prism7.

In experiment [3] the target is human CSF1R expressed on cells (293F/huCSF1R stable cells; AML5 cells; human monocytes and macrophages) (human, UniProt P07333 20-972). In words: cell-based or functional assay.
Experiment [4] concerns the target T2, recombinant human CSF1R-Fc fusion …. The experiment is described as follows: ELISA, coated human CSF1R-Fc. As to the method:
Materials and methods: Recombinant human CSF1R-Fc, or mouse CSF1R-Fc (Sino Biological) were immobilized on 96 well microtiter plate at a concentration of 1 μg/mL in Coating Solution (SeraCare) overnight at 4° C. The wells were washed with wash solution (0.05% Tween20 in imidazole-buffered saline) and blocked with 1% BSA. Serial dilutions of the anti-CSF1R/IL-10 fusion proteins were added to wells. After incubation at 3TC for 1 h, the wells were washed with wash solution. To detect chimeric Ab/IL10 fusions, peroxidase-conjugated goat anti-human kappa light chain antibody (Bethyl) was applied to each well at 3TC for 1 h incubation. To detect AB98 or AB98/1110 fusions, peroxidase-conjugated Goat anti-mouse IgG Fab antibody (Jackson immunoresearch) was applied to each well at 3TC for 1 h incubation. After washing, the wells were developed with TMB substrate for 5-10 min at RT and then stopped with 1 N HCl. Thereafter absorbance was measured at 450 nm and 650 nm.
For orientation: ELISA stands for enzyme-linked immunosorbent assay.

The target of experiment [5] is T3, recombinant human IL-10Ra fusion protein (R&D Systems) (human, UniProt Q13651 22-235).
T3 sequence (looked up): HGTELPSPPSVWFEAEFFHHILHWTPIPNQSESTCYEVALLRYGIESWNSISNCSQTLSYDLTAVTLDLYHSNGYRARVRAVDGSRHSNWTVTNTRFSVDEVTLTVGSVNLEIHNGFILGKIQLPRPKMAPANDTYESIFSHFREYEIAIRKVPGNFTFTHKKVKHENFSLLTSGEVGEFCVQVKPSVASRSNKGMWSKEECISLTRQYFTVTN
The experiment is described as follows: ELISA, coated human IL-10Ra fusion protein. The method, then:
Materials and methods: Recombinant human IL-10Ra fusion protein (R&D Systems) were immobilized on 96 well microtiter plate at a concentration of 1 μg/ml in Coating Solution (SeraCare) overnight at 4° C. The wells were washed with wash solution (0.05% Tween20 in imidazole-buffered saline) and blocked with 1% BSA. Serial dilutions of Ab/IL-10 fusion proteins were added to wells. After incubation at 37° C. for lhr, the wells were washed with wash solution. Peroxidase-conjugated goat anti-human kappa light chain antibody (Bethyl) was applied to each well at 37° C. for 1 hr incubation. After washing, the wells were developed with TMB substrate for 5-10 min at RT and then stopped with 1 N HCl. Thereafter absorbance was measured at 450 nm and 650 nm. The EC50 value was calculated through GraphPad Prism7.

T2 sequence (P07333 20-512 limits assumed): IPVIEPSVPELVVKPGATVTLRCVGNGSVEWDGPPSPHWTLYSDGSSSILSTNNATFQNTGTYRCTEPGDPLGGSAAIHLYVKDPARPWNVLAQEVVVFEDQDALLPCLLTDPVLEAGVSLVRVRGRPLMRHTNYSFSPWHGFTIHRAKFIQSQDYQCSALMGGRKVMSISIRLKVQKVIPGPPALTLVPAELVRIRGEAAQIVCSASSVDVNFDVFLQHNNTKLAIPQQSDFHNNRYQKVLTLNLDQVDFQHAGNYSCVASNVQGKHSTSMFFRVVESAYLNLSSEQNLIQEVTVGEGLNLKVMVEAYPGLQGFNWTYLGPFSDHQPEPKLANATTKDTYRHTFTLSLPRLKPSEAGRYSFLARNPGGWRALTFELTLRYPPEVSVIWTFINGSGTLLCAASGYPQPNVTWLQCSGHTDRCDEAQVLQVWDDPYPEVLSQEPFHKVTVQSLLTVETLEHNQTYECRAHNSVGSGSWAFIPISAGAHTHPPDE

B1: chimeric anti-CSF1R/IL10 fusion protein 6D4/IL10 (antibody, human IgG1, kappa)
heavy: not shown
light: DIQMNQSPSSLSASLGDTITITCHASQNINVWLSWYQQKPGNIPKLLIYKASNLHTGVPSRFSGSGSGTGFTLTISSLQPEDIATYYCQQGQSYPYTFGGGTKLEIKRTVAAPSVFIFPPSDEQLKSGTASVVCLLNNFYPREAKVQWKVDNALQSGNSQESVTEQDSKDSTYSLSSTLTLSKADYEKHKVYACEVTHQGLSSPVTKSFNRGEC
notes: Antibody-cytokine fusion: human IL10 fused by a linker to the C-terminus of the heavy chain
As to B1, in experiment [1], the binding result is given as “binds”. In experiment [2], the IC50 (in general, the concentration that gives 50% inhibition) is 1.4 nM. In addition, the “IC50 (M), inhibition of AML5 cell proliferation (CSF1-dependent)” value in experiment [3] worked out at 4.92e-09 M. Further, the half-maximal effective concentration (EC50) – broadly, the concentration that produces a half-maximal response – turned out to be 0.479 nM in experiment [4] and 2.76 nM in experiment [5].

B2: chimeric anti-CSF1R/IL10 fusion protein 6D4/(IL10)2 (antibody, human IgG1, kappa)
heavy: not shown
light: DIQMNQSPSSLSASLGDTITITCHASQNINVWLSWYQQKPGNIPKLLIYKASNLHTGVPSRFSGSGSGTGFTLTISSLQPEDIATYYCQQGQSYPYTFGGGTKLEIKRTVAAPSVFIFPPSDEQLKSGTASVVCLLNNFYPREAKVQWKVDNALQSGNSQESVTEQDSKDSTYSLSSTLTLSKADYEKHKVYACEVTHQGLSSPVTKSFNRGEC
notes: Antibody-cytokine fusion: two human IL10 in tandem fused by linkers to the C-terminus of the heavy chain
Turning to B2, the EC50 in experiment [4] was found to be 0.393 nM; in experiment [5] it was 6.08 nM.

The record behind these values is patent US20210403583A1 (ELIXIRON IMMUNOTHERAPEUTICS HONG KONG, published 2021).
